Experimental data published in the supplement of paper PMC9732359.
± gives the uncertainty stated by the source.

Assay: protein stability index of a GFP-peptide fusion (yeast GPS) (PSI 1-4); higher = more stable; sorted into four equal gates, so the index is relative within each strain
Outline: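 Each library plasmid carries Cherry plus GFP with a tiled 17-residue yeast protein peptide fused downstream, and the pooled library was carried in yeast. Mid-log cultures in leucine-free medium were sorted into four equal gates by GFP/Cherry ratio. Reads from Illumina sequencing of PCR-amplified plasmids from each gate were assigned to strains by barcodes. Per peptide, the protein stability index was computed as the summed products of gate read frequency and gate number.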

| Sequence | protein stability index (doa10∆) | protein stability index (pdr5∆) | protein stability index (san1∆) | protein stability index (ubr1∆) |
| --- | --- | --- | --- | --- |
| GTLDINPDDDYGFKQEI [FAS1] | 3.12 ± 0.26 | 3.21 ± 0.15 | 2.79 ± 0.099 | 3.04 ± 0.086 |
| QTGTRRNSKLLNTKSIQ [MCD1] | 3.29 ± 0.2 | 3.19 ± 0.18 | 3.05 ± 0.085 | 3.2 ± 0.072 |
| KAAAGAGSAALKIIHDT [RPO31] | 3.45 ± 0.13 | 1.8 ± 0.17 | 1.72 ± 0.13 | 1.77 ± 0.18 |
| LIESGIGTHHAGLTRSD [BRR2] | 3.31 ± 0.095 | 3.5 ± 0.13 | 2.82 ± 0.1 | 3.43 ± 0.062 |
| LKRADYTAVDTAKLQMR [RPN14] | – | 3.33 ± 0.23 | 2.76 ± 0.1 | – |
| KIPILAQHESFLRQKIC [RPN9] | 1.72 ± 0.046 | 2.06 ± 0.055 | 1.85 ± 0.076 | 2.14 ± 0.038 |
| YLEELQRKKQSDVLRFL [RPL15A] | 1.38 ± 0.16 | 2.25 ± 0.21 | 1.72 ± 0.26 | 1.5 ± 0.097 |
| EQTRTILSVKLAELINM [SRB6] | – | – | 2.91 ± 0.24 | – |
| NLPILKNHFRKHWQERV [RPL13A] | 2.33 ± 0.085 | 2.83 ± 0.073 | 2.31 ± 0.1 | 1.87 ± 0.089 |
| HFELGGEKKQKGQALQF [RPL42A] | 2.72 ± 0.17 | 2.88 ± 0.1 | 2.46 ± 0.094 | 2.76 ± 0.13 |
| SPQQFLRAHTDDSRNPD [PRE2] | 2.93 ± 0.092 | 3.03 ± 0.069 | 2.7 ± 0.079 | 2.88 ± 0.079 |
| IVQIDATPFRQWFEAHY [RPS8A] | 2.425 ± 0.022 | 2.797 ± 0.025 | 2.626 ± 0.023 | 2.697 ± 0.019 |
| DISAAIVHSSDGHLQFL [DLS1] | 2.92 ± 0.056 | 2.85 ± 0.068 | 3.01 ± 0.048 | 2.8 ± 0.078 |
| ILECDLLICIGTSLKVA [SIR2] | 2.05 ± 0.081 | 1.59 ± 0.061 | 2.14 ± 0.15 | 1.73 ± 0.05 |
| SDPQMKVFDTLTRFSHD [RPN1] | – | 2.84 ± 0.15 | 2.78 ± 0.18 | 2.94 ± 0.21 |
| DTSAEKDQIQAGKWFDP [SIR4] | 3.51 ± 0.12 | 3.57 ± 0.14 | 3.38 ± 0.12 | 3.38 ± 0.18 |
| VKDELMFSPLVDSGSND [RPO21] | 3.11 ± 0.065 | 3.17 ± 0.053 | 3.22 ± 0.047 | 3.21 ± 0.048 |
| NIATQQNMQQSLQQMQH [GAL11] | 2.75 ± 0.076 | 2.92 ± 0.091 | 2.68 ± 0.17 | 2.86 ± 0.069 |
| MAGKVLILTSHNMKAYY [BRR2] | 2.1 ± 0.06 | 2.46 ± 0.058 | 1.6 ± 0.094 | 2.4 ± 0.068 |
| VNIPSFMVRLDSEKHID [RPS9A] | 2.62 ± 0.081 | 2.64 ± 0.051 | 2.48 ± 0.059 | 2.2 ± 0.052 |
| VTMGAKDKLREFIPHST [RPN6] | 3.46 ± 0.11 | 3.1 ± 0.14 | 2.96 ± 0.099 | 3.04 ± 0.11 |
| PEYEKAMQYVCGDSIIC [SMC1] | 1.7 ± 0.1 | 2.27 ± 0.17 | 1.88 ± 0.14 | 1.89 ± 0.1 |
| VERGRVGACTDEEMTIS [RRP43] | – | 3.08 ± 0.23 | – | 3.23 ± 0.2 |
| ISRERDLFTHLWNQWLK [SRP68] | 3.04 ± 0.12 | 3.06 ± 0.12 | 2.99 ± 0.055 | 2.93 ± 0.11 |
| LEDQQRQQKLLLETKLR [SWI1] | 2.81 ± 0.12 | 2.65 ± 0.14 | 3.12 ± 0.083 | 2.31 ± 0.17 |
| KIEGVATPQEAQFYLGK [RPL33B] | 2.87 ± 0.083 | 3.03 ± 0.098 | 2.91 ± 0.091 | 3 ± 0.072 |
| PFDNSTEEKCKNFIESE [YJL039C/NUP192] | 3.27 ± 0.14 | 3.39 ± 0.16 | 3.22 ± 0.096 | 3.32 ± 0.1 |
| QNTSNMNAGGLFGAKPQ [YGR119C/NUP57] | 2.08 ± 0.055 | 3.05 ± 0.063 | 3.34 ± 0.052 | 2.17 ± 0.076 |
